Assay results reported in patent publication US20250368754A1 (KANAPH THERAPEUTICS, published 2025).

Experiments:
[1] = biological target: T1, human FAP on HEK293-hFAP cells (human, UniProt Q12884 1-760); experiment: flow cytometry on HEK293-hFAP cells, 1 µg protein, anti-human IgG detection
T1 construct: whole, on cells; also called human FAP-expressing cell line
T1 sequence (looked up): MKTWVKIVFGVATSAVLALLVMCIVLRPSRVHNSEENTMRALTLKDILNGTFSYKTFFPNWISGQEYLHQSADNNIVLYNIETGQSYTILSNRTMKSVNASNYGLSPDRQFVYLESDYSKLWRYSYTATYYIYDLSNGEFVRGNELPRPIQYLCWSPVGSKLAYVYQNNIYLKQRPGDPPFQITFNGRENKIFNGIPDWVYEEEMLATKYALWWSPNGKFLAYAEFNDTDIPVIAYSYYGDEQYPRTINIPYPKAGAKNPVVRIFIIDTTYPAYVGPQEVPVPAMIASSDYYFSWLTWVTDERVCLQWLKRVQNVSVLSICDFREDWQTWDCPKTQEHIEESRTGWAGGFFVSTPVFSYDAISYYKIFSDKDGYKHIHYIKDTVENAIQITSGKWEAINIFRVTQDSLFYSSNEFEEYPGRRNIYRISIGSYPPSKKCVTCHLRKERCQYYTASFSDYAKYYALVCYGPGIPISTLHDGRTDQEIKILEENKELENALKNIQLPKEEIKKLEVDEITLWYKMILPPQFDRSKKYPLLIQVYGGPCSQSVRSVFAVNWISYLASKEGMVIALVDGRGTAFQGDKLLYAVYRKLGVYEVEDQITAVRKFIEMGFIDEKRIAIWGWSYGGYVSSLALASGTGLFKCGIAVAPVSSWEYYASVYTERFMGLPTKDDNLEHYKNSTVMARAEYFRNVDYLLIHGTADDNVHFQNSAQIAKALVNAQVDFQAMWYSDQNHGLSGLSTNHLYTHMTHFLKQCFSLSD
Procedure: Specifically, the cell line was prepared by suspending in a FACS buffer solution at 1×10⁵ cells/100 μL, and treated with 1 μg each of T3.10, T3.01, T3.05, T3.06, T3.14, and T3.18. The cells were washed twice with a FACS buffer solution. The cells were stained with an anti-human IgG antibody (Biolegend). The negative control sample was stained only with an anti-human IgG antibody (Biolegend). The expression ratio of the stained cells was measured using BD LSR and analyzed using FlowJo software.

human LTβR on A375 cells = biological target: T2, human LTβR on A375 cells (human, UniProt P36941 31-435); experiment: flow cytometry on A375 cells, serial dilution from 500 nM, anti-human IgG detection
T2 construct: whole, on cells; Endogenous receptor of a human cell line; also called LTβR expressing A375 cells; LTβR expressing cell line
T2 sequence (P36941 31-435): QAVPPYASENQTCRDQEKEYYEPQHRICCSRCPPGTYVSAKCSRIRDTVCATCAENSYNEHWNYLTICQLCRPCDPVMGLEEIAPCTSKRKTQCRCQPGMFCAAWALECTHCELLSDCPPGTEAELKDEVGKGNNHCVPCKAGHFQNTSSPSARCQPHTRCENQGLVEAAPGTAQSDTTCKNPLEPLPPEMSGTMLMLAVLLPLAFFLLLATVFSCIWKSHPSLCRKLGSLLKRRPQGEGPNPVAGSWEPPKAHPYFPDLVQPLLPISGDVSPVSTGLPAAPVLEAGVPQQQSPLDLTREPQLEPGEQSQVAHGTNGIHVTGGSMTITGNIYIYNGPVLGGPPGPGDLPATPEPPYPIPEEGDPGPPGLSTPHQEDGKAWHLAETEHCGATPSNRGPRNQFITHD
Procedure: Specifically, the A375 cell line was prepared by suspending in a FACS buffer solution at 1×10⁵ cells/100 μL, and treated with 100 μL each of T3.01, T3.07, T3.04, and T3.18 prepared by suspending at 500 nM and diluting by serial dilution. The cells were washed twice with a FACS buffer solution. The cells were stained with an anti-human IgG antibody (Biolegend). The expression ratio of the stained cells was measured using BD LSR and analyzed using FlowJo software.

[2] = biological target: T3, recombinant human lymphotoxin beta receptor (LTβR) (human, UniProt P36941 28-227, limits assumed); experiment: SPR, human LTβR immobilised on CM5, fusion protein as analyte, 1:1 binding model
T3 construct: neither construct is described; also called human LTβR; recombinant human LTβR protein
T3 sequence (P36941 28-227 limits assumed): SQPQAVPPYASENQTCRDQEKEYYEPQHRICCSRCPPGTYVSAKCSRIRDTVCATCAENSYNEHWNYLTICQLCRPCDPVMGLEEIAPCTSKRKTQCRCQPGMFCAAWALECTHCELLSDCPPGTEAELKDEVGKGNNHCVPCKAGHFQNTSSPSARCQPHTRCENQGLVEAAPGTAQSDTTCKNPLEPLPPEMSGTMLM
Procedure: Specifically, the surface of the CM5 chip was activated with a 1:1 mixture of […], and 5 μg/mL of human LTβR was immobilized for 60 seconds at a rate of 10 μL/min. The remaining active ester groups were blocked with 1 M ethanolamine. […] The diluted fusion proteins were reacted at a rate of 30 μL/min. The association and dissociation times were 180 seconds and 400 seconds, respectively. After the dissociation step, stabilization was performed for 60 seconds, and then the regeneration step was performed for 30 seconds with a 10 mM glycine pH 1.5 solution at a rate of 30 μL/min.

recombinant human FAP = biological target: T4, recombinant human FAP (human, UniProt Q12884 26-760); experiment: SPR, fusion protein captured by anti-human IgG (Fc) on CM5, recombinant human FAP as analyte, 1:1 binding model
T4 construct: also called rhFAP
T4 sequence (looked up): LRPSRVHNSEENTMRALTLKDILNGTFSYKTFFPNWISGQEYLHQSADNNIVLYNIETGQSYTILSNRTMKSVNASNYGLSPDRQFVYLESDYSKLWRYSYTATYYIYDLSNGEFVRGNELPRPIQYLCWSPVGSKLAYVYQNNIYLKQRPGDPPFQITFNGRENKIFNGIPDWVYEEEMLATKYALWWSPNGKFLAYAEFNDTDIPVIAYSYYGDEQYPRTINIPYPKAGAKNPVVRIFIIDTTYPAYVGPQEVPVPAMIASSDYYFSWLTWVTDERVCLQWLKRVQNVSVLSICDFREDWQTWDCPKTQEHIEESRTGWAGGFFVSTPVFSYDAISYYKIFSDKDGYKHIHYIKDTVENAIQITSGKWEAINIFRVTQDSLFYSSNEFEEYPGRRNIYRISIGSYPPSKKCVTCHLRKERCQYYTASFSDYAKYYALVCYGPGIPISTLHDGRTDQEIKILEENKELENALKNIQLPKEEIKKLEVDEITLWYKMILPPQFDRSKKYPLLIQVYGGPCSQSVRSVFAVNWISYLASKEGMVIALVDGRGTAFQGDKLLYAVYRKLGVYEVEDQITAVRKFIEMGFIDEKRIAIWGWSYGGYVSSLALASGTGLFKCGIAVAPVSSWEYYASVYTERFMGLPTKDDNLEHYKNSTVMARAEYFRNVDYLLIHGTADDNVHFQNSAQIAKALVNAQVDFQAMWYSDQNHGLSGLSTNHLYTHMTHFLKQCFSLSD
Procedure: Specifically, the surface of the CM5 chip was activated with a 1:1 mixture of […] NHS (N-hydroxysuccinimide) and 200 nM EDC (1-ethyl-3-(3-dimethylaminopropyl)carbodiimide), and 20 μg/mL of anti-human IgG (Fc) antibody was immobilized for 400 seconds at a rate of 10 μL/min. The remaining active ester groups were blocked with 1 M ethanolamine. T3.01, T3.07, and T3.14 were diluted to 2 μg/mL, 1 μg/mL, and 2 μg/mL, respectively, and reacted on the CM5 chip immobilized with the anti-human IgG (Fc) antibody. The recombinant human FAP was diluted to 50 nM or 100 nM in 1×HBS-EP+buffer solution and diluted by serial dilution. The diluted recombinant human FAP was reacted at a rate of 30 μL/min. The association and dissociation times were 180 seconds and 400 seconds, respectively. After the dissociation step, stabilization was performed for 60 seconds, and then the regeneration step was performed for 30 seconds with a 10 mM glycine pH 1.5 solution at a rate of 30 μL/min.

B1: T3.01 (anti-hu FAP/hu scLIGHT3, hu IgG1 DANG) (bispecific antibody)
heavy: QVQLVQSGAEVKKPGASVKVSCKTSRYTFTEYTIHWVRQAPGQRLEWIGGINPNNGIPNYNQKFKGRVTITVDTSASTAYMELSSLRSEDTAVYYCARRRIAYGYDEGHAMDYWGQGTLVTVSSASTKGPSVFPLAPSSKSTSGGTAALGCLVKDYFPEPVTVSWNSGALTSGVHTFPAVLQSSGLYSLSSVVTVPSSSLGTQTYICNVNHKPSNTKVDKKVEPKSCDKTHTCPPCPAPELLGGPSVFLFPPKPKDTLMISRTPEVTCVVVAVSHEDPEVKFNWYVDGVEVHNAKTKPREEQYGSTYRVVSVLTVLHQDWLNGKEYKCKVSNKALPAPIEKTISKAKGQPREPQVYTLPPSRDELTKNQVSLWCLVKGFYPSDIAVEWESNGQPENNYKTTPPVLDSDGSFFLYSKLTVDKSRWQQGNVFSCSVMHEALHNHYTQKSLSLSPGK
light: not shown
chain: not shown
notes: Knob-into-hole heterodimer: one anti-FAP Fab arm and one single-chain human LIGHT (91-240) homotrimer arm
percent of cells bound [1]: ≥ 99% | percent of cells bound (human LTβR on A375 cells): ≥ 96% | Kd [2]: 0.928 nM | koff [2]: 0.000321 s⁻¹ | kon [2]: 346000 M⁻¹ s⁻¹ | Kd (recombinant human FAP): 0.0364 nM | koff (recombinant human FAP): 3.89e-06 s⁻¹ | kon (recombinant human FAP): 107000 M⁻¹ s⁻¹

B2: T3.14 (anti-hu FAP/hu scLIGHT-LTb2, hu IgG1 DANG) (bispecific antibody)
heavy: B1 heavy
light: not shown
chain: not shown
notes: Knob-into-hole; single-chain heterotrimer of one human LIGHT and two human lymphotoxin beta (87-243)
percent of cells bound [1]: ≥ 99% | Kd [2]: 0.29 nM | koff [2]: 0.000434 s⁻¹ | kon [2]: 1.5e+06 M⁻¹ s⁻¹ | Kd (recombinant human FAP): 0.0123 nM | koff (recombinant human FAP): 1.53e-06 s⁻¹ | kon (recombinant human FAP): 124000 M⁻¹ s⁻¹
